According to ChEMBL document CHEMBL3525898, “Pharmacogenomics of gemcitabine metabolism: functional analysis of genetic variants in cytidine deaminase and deoxycytidine kinase” (Drug Metab Dispos, 2013):

What was measured:
Assay type in all cases: ADME
[1] = system: Nc1ccn([C@@H]2O[C@H](CO)[C@@H](O)C2(F)F)c(=O)n1; assay: Activity of human recombinant N-terminal His-SUMO fused CDA Ala70Thr mutant expressed in Escherichia coli BL21(DE3) cells assessed as 2',2'-difluorodeoxyuridine formation by liquid chromatography-tandem mass spectrometry
[2] = system: Nc1ccn([C@@H]2O[C@H](CO)[C@@H](O)C2(F)F)c(=O)n1; assay: Activity of human recombinant N-terminal His-SUMO fused CDA Lys27Gln mutant expressed in Escherichia coli BL21(DE3) cells assessed as 2',2'-difluorodeoxyuridine formation by liquid chromatography-tandem mass spectrometry
[3] = system: Nc1ccn([C@@H]2O[C@H](CO)[C@@H](O)C2(F)F)c(=O)n1; assay: Activity of human recombinant N-terminal His-tagged wild type DCK expressed in Escherichia coli BL21(DE3) cells assessed as enzyme-mediated […] incubated for 1 min by liquid chromatography-tandem mass spectrometry

Deoxycytidine kinase (Homo sapiens), sequence (chain, as listed by the source): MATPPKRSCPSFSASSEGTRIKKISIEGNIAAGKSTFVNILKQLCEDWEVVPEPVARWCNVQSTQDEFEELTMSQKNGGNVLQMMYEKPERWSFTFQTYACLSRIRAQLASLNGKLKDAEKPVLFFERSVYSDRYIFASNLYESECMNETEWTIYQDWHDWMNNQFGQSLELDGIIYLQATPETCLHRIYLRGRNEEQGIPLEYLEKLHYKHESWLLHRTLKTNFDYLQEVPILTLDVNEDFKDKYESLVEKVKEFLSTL

Cytidine deaminase (Homo sapiens; A70T)
Km [1]: 610 µM
Vmax [1]: 0.151 µmol/min/mg

Cytidine deaminase (Homo sapiens; K27Q)
Km [2]: 562 µM
Vmax [2]: 0.195 µmol/min/mg

Deoxycytidine kinase (Homo sapiens)
Km [3]: 2.15 µM
Vmax [3]: 1.06 µmol/min/mg
